Measured values from paper PMC3679522 (eLife, 2013).

B1: importin β from S. cerevisiae (ScKap95) (natural protein)
chain: MSTAEFAQLLENSILSPDQNIRLTSETQLKKLSNDNFLQFAGLSSQVLIDENTKLEGRILAALTLKNELVSKDSVKTQQFAQRWITQVSPEAKNQIKTNALTALVSIEPRIANAAAQLIAAIADIELPHGAWPELMKIMVDNTGAEQPENVKRASLLALGYMCESADPQSQALVSSSNNILIAIVQGAQSTETSKAVRLAALNALADSLIFIKNNMEREGERNYLMQVVCEATQAEDIEVQAAAFGCLCKIMSLYYTFMKPYMEQALYALTIATMKSPNDKVASMTVEFWSTICEEEIDIAYELAQFPQSPLQSYNFALSSIKDVVPNLLNLLTRQNEDPEDDDWNVSMSAGACLQLFAQNCGNHILEPVLEFVEQNITADNWRNREAAVMAFGSIMDGPDKVQRTYYVHQALPSILNLMNDQSLQVKETTAWCIGRIADSVAESIDPQQHLPGVVQACLIGLQDHPKVATNCSWTIINLVEQLAEATPSPIYNFYPALVDGLIGAANRIDNEFNARASAFSALTTMVEYATDTVAETSASISTFVMDKLGQTMSVDENQLTLEDAQSLQELQSNILTVLAAVIRKSPSSVEPVADMLMGLFFRLLEKKDSAFIEDDVFYAISALAASLGKGFEKYLETFSPYLLKALNQVDSPVSITAVGFIADISNSLEEDFRRYSDAMMNVLAQMISNPNARRELKPAVLSVFGDIASNIGADFIPYLNDIMALCVAAQNTKPENGTLEALDYQIKVLEAVLDAYVGIVAGLHDKPEALFPYVGTIFQFIAQVAEDPQLYSEDATSRAAVGLIGDIAAMFPDGSIKQFYGQDWVIDYIKRTRSGQLFSQATKDTARWAREQQKRQLSL
notes: Kap95 (importin β) of S. cerevisiae, PCR-amplified ORF

How the values were obtained:
[1] = biological target: B1; assay: pull-down; GST-FG fusions pre-bound to GSH beads; soluble protein (100-500 pmol) pre-mixed with 200 μg bacterial extract proteins in 0.5 ml pulldown buffer (10 mM HEPES pH 7.5, 160 mM KOAc, 1 mM MgOAc2, 1 mM DTT, 0.01% Triton X-100); 20 min, room temperature; eluted with 1 M NaCl, then SDS-sample buffer; SDS-PAGE, SYPRO Ruby; conditions: both partners purified
[2] = biological target: ZZ-HsRanQ69L (human, UniProt P62826 1-216, Q69L); assay: SEC; 2 μM of each protein, 20 min on ice, Superdex 200 10/300 in Ran binding buffer (10 mM HEPES pH 7.4, 150 mM NaCl, 2 mM MgOAc2, 1 mM DTT); fractions by SDS-PAGE (SYPRO Ruby) and Western blot against the ZZ-tag; conditions: both partners purified

binding result [1]	binding result [2]	Binder
binds	–	GST-Nup100(1–610) (domain or fragment, S. cerevisiae, UniProt Q02629 1-610, looked up, Nup100 of budding yeast, GLFG-type FG-repeat region, residues 1-610; source: E. coli BL21(DE3), purified (GSH beads, eluted with glutathione, dialysed); not shown: GST, N-terminal, kept) MFGNNRPMFGGSNLSFGSNTSSFGGQQSQQPNSLFGNSNNNNNSTSNNAQSGFGGFTSAAGSNSNSLFGNNNTQNNGAFGQSMGATQNSPFGSLNSSNASNGNTFGGSSSMGSFGGNTNNAFNNNSNSTNSPFGFNKPNTGGTLFGSQNNNSAGTSSLFGGQSTSTTGTFGNTGSSFGTGLNGNGSNIFGAGNNSQSNTTGSLFGNQQSSAFGTNNQQGSLFGQQSQNTNNAFGNQNQLGGSSFGSKPVGSGSLFGQSNNTLGNTTNNRNGLFGQMNSSNQGSSNSGLFGQNSMNSSTQGVFGQNNNQMQINGNNNNSLFGKANTFSNSASGGLFGQNNQQQGSGLFGQNSQTSGSSGLFGQNNQKQPNTFTQSNTGIGLFGQNNNQQQQSTGLFGAKPAGTTGSLFGGNSSTQPNSLFGTTNVPTSNTQSQQGNSLFGATKLTNMPFGGNPTANQSGSGNSLFGTKPASTTGSLFGNNTASTTVPSTNGLFGNNANNSTSTTNTGLFGAKPDSQSKPALGGGLFGNSNSNSSTIGQNKPVFGGTTQNTGLFGATGTNSSAVGSTGKLFGQNNNTLNVGTQNVPPVNNTTQNALLGTTAVPSLQQAPVTN
–	binds	B1
